Measured values from patent publication US20240279357A1 (THERINI BIO, published 2024).

Legend:
[1] = target: T1, P2 peptide comprising SEQ ID NO: 31 (human fibrin γ377-395) (human); test: SPR (Biacore) single cycle, steady state affinity; IgG from HEK supernatant captured, γ377-395 peptide analyte
T1 construct: Bought (CPC Scientific 920712); also called human P2 peptide
T1 peptide: YSMKKTTMKIIPFNRLTIG

[2] = target: T2, human Fibrin (human fibrinogen clotted on the plate with thrombin and CaCl2) (human, UniProt P02671 36-629; P02675 45-491; P02679 27-437); test: ELISA on plate-coated human fibrin (fibrinogen clotted in the well with thrombin/CaCl2), antibody titrated, A450
T2 construct: Made in the ELISA wells from the human fibrinogen by thrombin and CaCl2, 1 hour at 37 C, then dried
T2 sequence (looked up) 1: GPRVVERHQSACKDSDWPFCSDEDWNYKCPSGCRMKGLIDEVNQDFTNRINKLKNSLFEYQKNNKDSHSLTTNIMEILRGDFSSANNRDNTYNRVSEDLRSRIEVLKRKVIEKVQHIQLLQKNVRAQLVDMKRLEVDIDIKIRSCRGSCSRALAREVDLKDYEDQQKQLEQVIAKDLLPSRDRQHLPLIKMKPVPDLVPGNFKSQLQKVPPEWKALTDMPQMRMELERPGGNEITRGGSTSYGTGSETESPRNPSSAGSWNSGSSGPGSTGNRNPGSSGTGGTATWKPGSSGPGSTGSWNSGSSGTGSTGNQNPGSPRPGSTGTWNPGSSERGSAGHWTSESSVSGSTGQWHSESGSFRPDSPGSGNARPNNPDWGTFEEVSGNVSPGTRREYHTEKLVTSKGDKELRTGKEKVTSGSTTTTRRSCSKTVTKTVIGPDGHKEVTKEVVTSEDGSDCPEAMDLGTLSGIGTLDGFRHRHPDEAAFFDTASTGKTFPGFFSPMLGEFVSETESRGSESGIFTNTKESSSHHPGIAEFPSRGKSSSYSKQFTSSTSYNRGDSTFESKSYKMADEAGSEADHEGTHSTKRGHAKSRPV
T2 sequence (looked up) 2: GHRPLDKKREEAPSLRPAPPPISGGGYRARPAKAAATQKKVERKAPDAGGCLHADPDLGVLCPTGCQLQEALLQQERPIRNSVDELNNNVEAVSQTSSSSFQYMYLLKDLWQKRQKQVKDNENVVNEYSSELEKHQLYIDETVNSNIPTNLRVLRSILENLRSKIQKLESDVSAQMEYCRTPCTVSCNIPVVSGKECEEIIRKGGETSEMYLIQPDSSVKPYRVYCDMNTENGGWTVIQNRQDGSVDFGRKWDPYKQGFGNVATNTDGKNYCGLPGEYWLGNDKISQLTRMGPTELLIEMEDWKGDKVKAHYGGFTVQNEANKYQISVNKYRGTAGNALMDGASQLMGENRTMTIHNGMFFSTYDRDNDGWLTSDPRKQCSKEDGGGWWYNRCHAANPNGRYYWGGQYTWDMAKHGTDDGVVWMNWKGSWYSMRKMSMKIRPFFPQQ
T2 sequence (looked up) 3: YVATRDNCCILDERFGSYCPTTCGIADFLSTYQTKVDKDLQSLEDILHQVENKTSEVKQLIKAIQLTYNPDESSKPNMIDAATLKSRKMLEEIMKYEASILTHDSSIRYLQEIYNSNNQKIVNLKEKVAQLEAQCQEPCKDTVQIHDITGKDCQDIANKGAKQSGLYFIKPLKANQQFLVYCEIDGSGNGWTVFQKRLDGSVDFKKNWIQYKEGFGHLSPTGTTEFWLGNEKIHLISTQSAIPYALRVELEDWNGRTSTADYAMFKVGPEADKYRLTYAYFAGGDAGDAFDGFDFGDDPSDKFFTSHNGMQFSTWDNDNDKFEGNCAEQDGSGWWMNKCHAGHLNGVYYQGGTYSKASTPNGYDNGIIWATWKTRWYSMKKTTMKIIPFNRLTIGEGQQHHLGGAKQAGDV
Procedure: The humanized antibodies affinity for fibrinogen, fibrin and P2 peptide were assessed by Enzyme-linked immunosorbent assays (ELISA)s (FIGS. 7-16). ELISAs for fibrinogen binding were performed using plasminogen-depleted human Fibrinogen (EMD/Calbiochem). […] IgG1-depleted Fibrinogen (FGN) in 20 mM HEPES/Saline buffer was added to each well of half of a 96-well Nunc Maxisorp™ ELISA plate. The ELISAs for fibrin binding were prepared by adding 50 mL of 20 mM HEPES/Saline buffer containing 14 mM CaCl₂, and 2 units thrombin to each well of the second half of the Nunc Maxisorp™ ELISA plate. 50 mL of 20 mg fibrinogen in 20 mM HEPES/Saline buffer were then added to a total volume of 100 mL. Plates were placed in a 37° C. incubator for 1 hour to allow fibrinogen to clot into fibrin and subsequently placed overnight into a plate dryer at 37° C. overnight. The ELISAs for P2 peptide were prepared by addition of […] of 30 mM P2 peptide in 20 mM HEPES/Saline buffer to each well of a 96-well Nunc Maxisorp™ ELISA plate. Plates were transferred to the plate dryer and dried overnight at 37° C. All ELISAs were preformed using Nunc MaxiSorp 96-well ELISA plates. Blocking was performed using 100 mL 5% BSA in DPBS are incubated at RT for 1 hour. Plates were washed 5× in DPBS containing 0.05% Tween-20 (EL406 was used for the addition of wash buffer only). […]

Row | Binder | Kd [1] | Relative KD [1] | EC50 (read off the curve) [2]
1 | humanized VH5/Vκ2 antibody (antibody, IgG1, V domains shown, IgG1; also called VH5/VK2; VH5Vk2) VH: QVQLVQSGAEVKKPGSSVKVSCKASGYTFTSYWIHWVRQAPGQGLEWIGLIDPSDSYTNYNQKFRGRVTITRDTSTSTAYMELSSLRSEDTAVYYCASSDPTGCWGQGTTVTVSS VL: DIVMTQAAFSNPVTPGTPASISCRSSKSLLHSSGITYLSWYLQKPGQSPQLLIYQMSNLASGVPDRFSSSGSGTDFTLKISRVEAEDVGVYYCAQNLELPLTFGQGTKLEIK | 79 µM | 1 fold against VH5/VK2 | 
2 | humanized VH4/Vκ2 antibody (antibody, IgG1, V domains shown, IgG1; also called VH4/VK2; VH4Vk2) VH: QVQLVQSGAEVKKPGSSVKVSCKASGYTFTSYWIHWVRQAPGQGLEWIGLIDPSDSYTNYNQKFRGRVTITVDTSTSTAYMELSSLRSEDTAVYYCASSDPTGCWGQGTTVTVSS VL: DIVMTQAAFSNPVTPGTPASISCRSSKSLLHSSGITYLSWYLQKPGQSPQLLIYQMSNLASGVPDRFSSSGSGTDFTLKISRVEAEDVGVYYCAQNLELPLTFGQGTKLEIK | 47 µM | 1 fold against VH4/VK2 | 
3 | humanized VH4/Vκ1 antibody (antibody, IgG1, V domains shown, Expressed as IgG1; also called VH4/VK1; VH4Vk1) VH: QVQLVQSGAEVKKPGSSVKVSCKASGYTFTSYWIHWVRQAPGQGLEWIGLIDPSDSYTNYNQKFRGRVTITVDTSTSTAYMELSSLRSEDTAVYYCASSDPTGCWGQGTTVTVSS VL: DIVMTQAAFSNPITPGTPASISCRSSKSLLHSSGITYLSWYLQKPGQSPQLLIYQMSNLASGVPDRFSSSGSGTDFTLRISRVEAEDVGVYYCAQNLELPLTFGQGTKLEIK |  |  | ~0.3 µM
